Results reported in PMC4021362.

System: Hydra Myc2 p15;Hydra Max p22 (Hydra magnipapillata?;Hydra magnipapillata?)
Test: EMSA
Conditions: equimolar mixture, heterodimer; EMSA with 0.3 ng (25,000 cpm) 32P-labeled 18-mer dsDNA; binding buffer, salt, pH and temperature not given in the material

With E-box USF 18-mer the Kd was 0.0174 µM.
